Measured values reported in the supplement of paper PMC9876800.

System: peptide library, one residue held at a place counted from the S/T acceptor
Test: relative phosphorylation of the sub-library (ratio to the mean residue at this position); higher = residue favoured
Conditions: human
Summary of the method: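 Purified recombinant kinases were reacted in 384-well plates with biotinylated degenerate peptide sub-libraries, each having one residue fixed at one position around a central Ser/Thr. The reaction mix contained 50 μM peptide plus 50 μM ATP spiked with γ-32P-ATP and ran for 90 min under kinase-specific conditions. Relative sub-library phosphorylation, taken from densitometry of phosphorimaged streptavidin membrane spots, is a ratio to the mean residue at that position.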

STK24, construct: Full length, sequence (Q9Y6E0 whole entry, looked up): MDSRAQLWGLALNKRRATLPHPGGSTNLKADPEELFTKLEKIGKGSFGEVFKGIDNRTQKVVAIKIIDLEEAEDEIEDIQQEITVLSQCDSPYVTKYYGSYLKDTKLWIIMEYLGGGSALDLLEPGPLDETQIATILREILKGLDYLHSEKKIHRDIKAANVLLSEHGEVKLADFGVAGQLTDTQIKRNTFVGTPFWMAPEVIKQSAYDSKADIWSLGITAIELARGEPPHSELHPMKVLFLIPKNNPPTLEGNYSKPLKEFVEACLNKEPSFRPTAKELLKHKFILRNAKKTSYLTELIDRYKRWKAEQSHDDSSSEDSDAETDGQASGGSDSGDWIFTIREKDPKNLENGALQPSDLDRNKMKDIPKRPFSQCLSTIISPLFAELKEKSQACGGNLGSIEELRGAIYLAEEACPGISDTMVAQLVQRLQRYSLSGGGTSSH

STK24, construct: Full length (from UniProt Q9Y6E0)
relative phosphorylation
Conditions	at +1	at +2	at +3	at +4	at -1	at -2	at -3	at -4	at -5
A fixed	0.627	0.917	0.954	0.963	1.01	0.99	1.02	1.14	1.34
D fixed	0.166	0.344	0.465	0.516	0.762	0.388	0.58	0.738	0.689
E fixed	0.175	0.268	0.443	0.499	0.483	0.344	0.586	0.869	0.689
F fixed	1.29	0.471	0.999	0.679	0.781	1.19	0.855	0.867	0.873
G fixed	0.498	1.11	1.15	0.979	1.88	1.34	1.48	1.34	1.2
H fixed	0.946	1.11	1.17	1.03	1.12	1.44	1.05	1.08	1.07
I fixed	1.77	0.493	0.827	0.727	0.43	0.782	0.675	0.743	0.713
K fixed	0.827	3.1	2.09	2.43	1.57	1.41	1.84	1.51	1.87
L fixed	1.76	0.472	1.01	0.716	0.98	0.635	0.737	0.75	0.719
M fixed	1.61	0.6	0.843	0.846	0.897	0.702	0.738	0.81	0.68
N fixed	0.547	0.871	0.812	0.998	1.27	1.05	1.06	0.97	0.902
P fixed	0.401	0.807	0.802	0.952	0.751	0.765	0.959	0.94	1.2
Q fixed	0.673	0.789	0.822	0.936	0.945	0.91	0.935	1.01	0.926
R fixed	0.919	3.78	1.79	2.24	1.79	1.44	1.71	1.5	1.5
V fixed	1.47	0.615	0.828	0.693	0.546	0.83	0.71	0.772	0.851
W fixed	2.07	0.626	1.04	1.04	0.809	1.15	1.05	1.01	0.906
Y fixed	1.25	0.618	0.968	0.76	0.981	1.64	1.01	0.951	0.868
pThr fixed	1.19	1.05	0.892	0.801	0.865	1.28	1.61	1.33	1.43
pTyr fixed	0.488	0.389	0.748	0.55	1.1	0.833	1.15	0.836	1.16
